The RNAGym collection of RNA variant scans (doi:10.7554/elife.80360)

B1: Hairpin Ribozyme (parent)
chain: GUCCUCUUUCACGUGCGCGUGAAAGAGAGAAGUGAACCAGAGAAACACACGUUGUGGUAUAUUACCUGGUA

Variants of: B1
Assay: self-cleavage, relative activity (ratio to wild type); higher = more cleavage; co-transcriptional

| Variant | self-cleavage |
| --- | --- |
| GUCCUCUUUCACGUGCGCGUGAAAGAGAGAAGUGUACCAGUGAAACACACGUUGUGGUAUAUUACCUGGUA [A35U A41U] | 1.41 |
| GUCCUCUUUCACGUGCGCGUGAAAGAGAGAAGUGACCCAGAGAAACACACGUUGUGGUAUAUGACCUGGUA [A36C U63G] | 0.0757 |
| GUCCUCUUUCACGUGCGCGUGAAAGAGAGAAGUGUACCAGAGAAACACACGUUGUGGUAUAUAACCUGGUA [A35U U63A] | 0.227 |
| GUCCUCUUUCACGUGCGCGUGAAAGAGAGAAGUGUACCAGAGAAACACACGUUGUGGUAUAUGACCUGGUA [A35U U63G] | 0.147 |
| GUCCUCUUUCACGUGCGCGUGAAAGAGAGAAGUGUACCAGAGAAACACACGUUGUGGUACAUUACCUGGUA [A35U U60C] | 0.559 |
| GUCCUCUUUCACGUGCGCGUGAAAGAGAGAAGUGGACCAGAGAAACACACGUUGUGGUAUAUUACCUAGUA [A35G G68A] | 0.309 |
| GUCCUCUUUCACGUGCGCGUGAAAGAGAGAAGUGUACCAGAGAAACACACGGUGUGGUAUAUUACCUGGUA [A35U U52G] | 0.553 |
| GUCCUCUUUCACGUGCGCGUGAAAGAGAGAAGUGUACCAGAGAAACACACGCUGUGGUAUAUUACCUGGUA [A35U U52C] | 0.811 |
| GUCCUCUUUCACGUGCGCGUGAAAGAGAGAAGUGUACCAGAGAAACACACGAUGUGGUAUAUUACCUGGUA [A35U U52A] | 0.715 |
| GUCCUCUUUCACGUGCGCGUGAAAGAGAGAAGUGUACCAGAGAAUCACACGUUGUGGUAUAUUACCUGGUA [A35U A45U] | 0.151 |
| GUCCUCUUUCACGUGCGCGUGAAAGAGAGAAGUGACCCAGAGAAGCACACGUUGUGGUAUAUUACCUGGUA [A36C A45G] | 0.133 |
| GUCCUCUUUCACGUGCGCGUGAAAGAGAGAAGUGGACCAGAGAAACACACGUUGUGGUACAUUACCUGGUA [A35G U60C] | 0.917 |
| GUCCUCUUUCACGUGCGCGUGAAAGAGAGAAGUGACCCAGAGAAACACACGUUGUGGUAUAUUACCUGGGA [A36C U70G] | 0.671 |
| GUCCUCUUUCACGUGCGCGUGAAAGAGAGAAGUGUACCAGAGAAACACACGUUGUGGUAUAUUACCUAGUA [A35U G68A] | 0.29 |
| GUCCUCUUUCACGUGCGCGUGAAAGAGAGAAGUGACCCAGAGAAACACACGCUGUGGUAUAUUACCUGGUA [A36C U52C] | 0.556 |
| GUCCUCUUUCACGUGCGCGUGAAAGAGAGAAGUGGACCAGAGAAACACACGUUGAGGUAUAUUACCUGGUA [A35G U55A] | 0.292 |
| GUCCUCUUUCACGUGCGCGUGAAAGAGAGAAGUGACCCAGAGAAACACACGUUGUGGUAAAUUACCUGGUA [A36C U60A] | 0.439 |
| GUCCUCUUUCACGUGCGCGUGAAAGAGAGAAGUGACCCAGAGAAACACACGUUGUGGUAUAUUCCCUGGUA [A36C A64C] | 0.11 |
| GUCCUCUUUCACGUGCGCGUGAAAGAGAGAAGUGACCCAGAGAAACACACGUUGUGGUAUAUUACUUGGUA [A36C C66U] | 0.264 |

| Variant | self-cleavage |
| --- | --- |
| GUCCUCUUUCACGUGCGCGUGAAAGAGAGAAGUGACCCAGAGAAACACACUUUGUGGUAUAUUACCUGGUA [A36C G51U] | 0.678 |
| GUCCUCUUUCACGUGCGCGUGAAAGAGAGAAGUGUACCAGAGAAACACACGUUGUGGUGUAUUACCUGGUA [A35U A59G] | 0.18 |
| GUCCUCUUUCACGUGCGCGUGAAAGAGAGAAGUGACCCAGAGAAACACACGUUGUGGUAUAUUACCUGAUA [A36C G69A] | 0.24 |
| GUCCUCUUUCACGUGCGCGUGAAAGAGAGAAGUGACCCAGAGAAACACACGUUGUGGUAUAUUACCUGUUA [A36C G69U] | 0.227 |
| GUCCUCUUUCACGUGCGCGUGAAAGAGAGAAGUGACCCAGAGAAACACACGUUGUGGUAUAUUAACUGGUA [A36C C65A] | 0.52 |
| GUCCUCUUUCACGUGCGCGUGAAAGAGAGAAGUGACCCAGAGAAAUACACGUUGUGGUAUAUUACCUGGUA [A36C C46U] | 0.15 |
| GUCCUCUUUCACGUGCGCGUGAAAGAGAGAAGUGACCCAGAGAAAGACACGUUGUGGUAUAUUACCUGGUA [A36C C46G] | 0.134 |
| GUCCUCUUUCACGUGCGCGUGAAAGAGAGAAGUGUACCAGAGAAACACACGUUGUGGUAUAUUACCUGAUA [A35U G69A] | 0.184 |
| GUCCUCUUUCACGUGCGCGUGAAAGAGAGAAGUGUACCAGAGAAACACACGUUGUGGUAUAUUACCUGUUA [A35U G69U] | 0.111 |
| GUCCUCUUUCACGUGCGCGUGAAAGAGAGAAGUGUACCAGAGGAACACACGUUGUGGUAUAUUACCUGGUA [A35U A43G] | 0.0794 |
| GUCCUCUUUCACGUGCGCGUGAAAGAGAGAAGUGUACCAGAGAAACACCCGUUGUGGUAUAUUACCUGGUA [A35U A49C] | 0.17 |
| GUCCUCUUUCACGUGCGCGUGAAAGAGAGAAGUGUAGCAGAGAAACACACGUUGUGGUAUAUUACCUGGUA [A35U C37G] | 0.194 |
| GUCCUCUUUCACGUGCGCGUGAAAGAGAGAAGUGACCCAGAGAAACGCACGUUGUGGUAUAUUACCUGGUA [A36C A47G] | 0.0823 |
| GUCCUCUUUCACGUGCGCGUGAAAGAGAGAAGUGACCCAGAGAAACAGACGUUGUGGUAUAUUACCUGGUA [A36C C48G] | 0.118 |
| GUCCUCUUUCACGUGCGCGUGAAAGAGAGAAGUGACCCAGAGAAACAAACGUUGUGGUAUAUUACCUGGUA [A36C C48A] | 0.142 |
| GUCCUCUUUCACGUGCGCGUGAAAGAGAGAAGUGACCCAUAGAAACACACGUUGUGGUAUAUUACCUGGUA [A36C G40U] | 0.122 |
| GUCCUCUUUCACGUGCGCGUGAAAGAGAGAAGUGACCCACAGAAACACACGUUGUGGUAUAUUACCUGGUA [A36C G40C] | 0.135 |
| GUCCUCUUUCACGUGCGCGUGAAAGAGAGAAGUGACCCAGAGAAACACACGUUGUGGUAUACUACCUGGUA [A36C U62C] | 0.192 |
| GUCCUCUUUCACGUGCGCGUGAAAGAGAGAAGUGACCCAGAGAAACACACGUUGUGGUAUAGUACCUGGUA [A36C U62G] | 0.0267 |
